Substitutions are numbered along the chain they refer to. Names may count otherwise.
B1: Hu4F11-70 (antibody, human IgG1, kappa, V domains shown)
VH: EVQLLESGGGLVQPGGSLRLSCAASGFTFSHYDMSWVRQAPGKGLEWVSYISRGGGSTYYPDSVKGRFTISRDNSKNTLYLQMNSLRAEDTAVYYCGRHATTAYWYFDVWGQGTMVTVSS
VL: DVVMTQTPLSLSVTPGQPASISCRSSQSLVHTHGNTYLHWYLQKPGQSPQLLIYKVSNRFSGVPDRFSGSGSGTDFTLKISRVEAEDVGVYFCSQSTHVPWTFGQGTKVEIKR
notes: Humanized, human IgG1 kappa; Hv3-23 A28T S31H T62S heavy + Kv2D-29 N28H kappa
B2: Hu4F11-71 (antibody, human IgG1, kappa, V domains shown)
VH: B1 VH with H31S
VL: B1 VL
notes: Humanized, human IgG1 kappa; Hv3-23 A28T T62S heavy + Kv2D-29 N28H kappa
B3: Hu4F11-76 (antibody, human IgG1, kappa, V domains shown)
VH: B1 VH with T28A
VL: B1 VL with H33Y
notes: Humanized, human IgG1 kappa; Hv3-23 S31H T62S heavy + Kv2D-29 N28Y kappa
B4: Hu4F11-79 (antibody, human IgG1, kappa, V domains shown)
VH: B1 VH with H31S
VL: B1 VL with H33Q
notes: Humanized, human IgG1 kappa; Hv3-23 A28T T62S heavy + Kv2D-29 N28Q kappa
B5: Hu4F11-32 (antibody, human IgG1, kappa, V domains shown)
VH: B1 VH with T28A, H31S, S63T
VL: B1 VL with H33N
notes: Humanized, human IgG1 kappa; Sh4F11 Hv3-23 heavy + Hu4F11 Kv2D-29 kappa
B6: Hu4F11-78 (antibody, human IgG1, kappa, V domains shown)
VH: B1 VH
VL: B1 VL with H33Q
notes: Humanized, human IgG1 kappa; Hv3-23 A28T S31H T62S heavy + Kv2D-29 N28Q kappa
B7: Hu4F11-72 (antibody, human IgG1, kappa, V domains shown)
VH: B1 VH with T28A
VL: B1 VL
notes: Humanized, human IgG1 kappa; Hv3-23 S31H T62S heavy + Kv2D-29 N28H kappa
B8: Hu4F11-69 (antibody, human IgG1, kappa, V domains shown)
VH: B1 VH with H31N
VL: B1 VL
notes: Humanized, human IgG1 kappa; Hv3-23 A28T S31N T62S heavy + Kv2D-29 N28H kappa
B9: Hu4F11-74 (antibody, human IgG1, kappa, V domains shown)
VH: B1 VH
VL: B1 VL with H33Y
notes: Humanized, human IgG1 kappa; Hv3-23 A28T S31H T62S heavy + Kv2D-29 N28Y kappa
B10: Hu4F11-80 (antibody, human IgG1, kappa, V domains shown)
VH: B1 VH with T28A
VL: B1 VL with H33Q
notes: Humanized, human IgG1 kappa; Hv3-23 S31H T62S heavy + Kv2D-29 N28Q kappa
B11: Hu4F11-77 (antibody, human IgG1, kappa, V domains shown)
VH: B1 VH with H31N
VL: B1 VL with H33Q
notes: Humanized, human IgG1 kappa; Hv3-23 A28T S31N T62S heavy + Kv2D-29 N28Q kappa
B12: Hu4F11-75 (antibody, human IgG1, kappa, V domains shown)
VH: B1 VH with H31S
VL: B1 VL with H33Y
notes: Humanized, human IgG1 kappa; Hv3-23 A28T T62S heavy + Kv2D-29 N28Y kappa
B13: Hu4F11-73 (antibody, human IgG1, kappa, V domains shown)
VH: B1 VH with H31N
VL: B1 VL with H33Y
notes: Humanized, human IgG1 kappa; Hv3-23 A28T S31N T62S heavy + Kv2D-29 N28Y kappa

How the values were obtained:
[1] = target: T1, monomeric recombinant human Notch3 extracellular domain (containing EGF like domains 1-11) fusion protein (human, UniProt Q9UM47 40-467); test: SPR BIAcore T100, monomeric rhNotch3 analyte, 37 C, average of Table 16 and additional measurements
T1 construct: domain: EGF like domains 1-11; also called monomeric rhNotch3
T1 sequence (looked up): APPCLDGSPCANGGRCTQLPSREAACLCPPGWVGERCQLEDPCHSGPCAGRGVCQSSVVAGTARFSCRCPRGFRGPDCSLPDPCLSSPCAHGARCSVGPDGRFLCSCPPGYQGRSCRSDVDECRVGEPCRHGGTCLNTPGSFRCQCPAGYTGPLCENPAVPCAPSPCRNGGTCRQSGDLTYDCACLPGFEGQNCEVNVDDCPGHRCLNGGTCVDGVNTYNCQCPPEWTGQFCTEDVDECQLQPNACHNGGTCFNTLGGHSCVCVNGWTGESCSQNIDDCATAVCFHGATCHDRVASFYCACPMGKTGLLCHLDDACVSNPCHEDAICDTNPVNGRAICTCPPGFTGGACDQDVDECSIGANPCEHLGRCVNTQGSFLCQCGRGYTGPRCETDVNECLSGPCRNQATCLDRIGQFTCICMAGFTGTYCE
Procedure: (§1) Goat anti-human IgGs (Fc fragment specific, Jackson ImmunoResearch, West Grove, Pa.) were immobilized on carboxymethylated dextran CM4 sensor chips by amine coupling, according to a standard protocol. Analyses were performed at 25 and 37° C. using PBS containing 0.05% surfactant P20 as running buffer. The antibodies were captured in individual flow cells at a flow rate of 10 μL/minute. Injection time was varied for each antibody to yield an Rmax between 30 and 60 RU. Buffer or Notch3 protein diluted in running buffer was injected sequentially over a reference surface (no antibody captured) and the active surface (antibody to be tested) for 240 seconds at 60 μL/minute. The dissociation phase was monitored for up to 900 seconds. The surface was then regenerated with two 60-second injections of 10 mM Glycine-HCl, pH 2.25, at a flow rate of 30 μL/minute. The Notch3 concentration range tested was 50 nM to 6.25 nM.

[2] = target: T1, monomeric recombinant human Notch3 …; test: SPR BIAcore T100, antibody captured by anti-human IgG Fc, monomeric rhNotch3 analyte, 37 C
Procedure: (§2) The binding affinities and kinetics of binding of chimeric and humanized antibodies to monomeric recombinant human Notch3 extracellular domain (containing EGF like domains 1-11) fusion protein (monomeric rhNotch3) and monomeric recombinant cynomologus monkey Notch3 extracellular domain (containing EGF like domains 1-12) fusion protein (monomeric rcNotch3) were measured by surface plasmon resonance, using a BIAcore® T100 instrument (GE Healthcare, Piscataway, N.J.).
as §1

[3] = target: T2, monomeric recombinant cynomologus monkey Notch3 extracellular domain (containing EGF like domains 1-12) … (cynomologus monkey); test: SPR BIAcore T100, antibody captured by anti-human IgG Fc, monomeric rcNotch3 analyte, 37 C
T2 construct: domain: EGF like domains 1-12; also called monomeric rcNotch3
Procedure: as §2, §1

[4] = target: T2, monomeric recombinant cynomologus …; test: SPR BIAcore T100, antibody captured by anti-human IgG Fc, monomeric rcNotch3 analyte, 25 C
Procedure: as §2, §1
Kinetic parameters were determined using the kinetic function of the BIAevaluation software (GE Healthcare) with double reference subtraction. Kinetic parameters for each antibody, kₐ (association rate constant), kd (dissociation rate constant), and KD (equilibrium dissociation constant) were determined.

| Binder | Kd [1] [nM] | koff [1] [s⁻¹] | kon [1] [M⁻¹ s⁻¹] | Kd [2] [nM] | koff [2] [s⁻¹] | kon [2] [M⁻¹ s⁻¹] | Kd [3] [nM] | koff [3] [s⁻¹] | kon [3] [M⁻¹ s⁻¹] | Kd [4] [nM] | koff [4] [s⁻¹] | kon [4] [M⁻¹ s⁻¹] |
| --- | --- | --- | --- | --- | --- | --- | --- | --- | --- | --- | --- | --- |
| B1 | 7.5 | 0.0039 | 690000 | 3 | 0.0028 | 940000 | 9.1 | 0.0029 | 370000 | 5.2 | 0.001 | 200000 |
| B2 | 9.2 | 0.0095 | 1.1e+06 | 3 | 0.0037 | 1.2e+06 | 14 | 0.0056 | 410000 | 2.7 | 0.004 | 1.5e+06 |
| B3 | 8.2 | 0.0064 | 980000 | 3.3 | 0.0055 | 1.7e+06 | 12 | 0.0062 | 540000 | 2.5 | 0.0019 | 780000 |
| B4 | 16 | 0.0091 | 900000 | 3.2 | 0.006 | 1.8e+06 | 23 | 0.021 | 980000 | 3.4 | 0.0046 | 1.3e+06 |
| B5 | 7.6 | 0.084 | 7.4e+06 | 2.7 | 0.0046 | 1.7e+06 | 32 | 0.016 | 500000 | 18 | 0.0075 | 790000 |
| B6 | 9 | 0.006 | 820000 | 3.8 | 0.0055 | 1.5e+06 | 11 | 0.007 | 660000 | 2.2 | 0.0038 | 1.8e+06 |
| B7 | 7 | 0.0069 | 710000 | 5.2 | 0.00094 | 180000 | 9.8 | 0.0032 | 440000 | 1.6 | 0.0045 | 2.8e+06 |
| B8 | 8.5 | 0.0037 | 710000 | 2.9 | 0.0038 | 1.3e+06 | 11 | 0.0038 | 400000 | 7.7 | 0.00094 | 120000 |
| B9 | 10 | 0.0051 | 490000 | 3.9 | 0.0022 | 560000 | 12 | 0.0045 | 440000 | 2.8 | 0.0025 | 900000 |
| B10 | 14 | 0.0056 | 590000 | 3.8 | 0.0041 | 1.1e+06 | 12 | 0.01 | 910000 | 4 | 0.0032 | 820000 |
| B11 | 8.6 | 0.0074 | 1.2e+06 | 3.3 | 0.0073 | 2.2e+06 | 12 | 0.01 | 910000 | 2.6 | 0.0025 | 960000 |
| B12 | 10 | 0.013 | 1.7e+06 | 3.4 | 0.009 | 2.7e+06 | 24 | 0.0089 | 380000 | 3.7 | 0.0026 | 720000 |
| B13 | 11 | 0.0046 | 490000 | 5.9 | 0.0013 | 210000 | 15 | 0.0063 | 500000 | 2.6 | 0.0019 | 760000 |

Reference: patent US20180230213A1 (AVEO PHARMACEUTICALS, published 2018)
